Data taken from patent US20250019439A1 (Adimab, published 2025).

Columns and labels:
ADI-22523 Fab = target: T1, ADI-22523 Fab; test: BLI; tip anti-ID IgG, solution ADI-22523 Fab
T1 construct: anti-CD3 Fab by papain digestion of the IgG
Method in brief: (§1)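 Anti-ID IgG was captured on AHC biosensors, equilibrated in assay buffer for 30 min, then baselined for 60 s. KD = koff/kon came from a 1:1 binding fit.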

ADI-22523 IgG = target: T2, ADI-22523 IgG; test: BLI; tip anti-ID IgG, solution ADI-22523 IgG
T2 construct: anti-CD3 IgG
T2 sequence (VH, as listed by the source limits assumed, chain 1 of 2): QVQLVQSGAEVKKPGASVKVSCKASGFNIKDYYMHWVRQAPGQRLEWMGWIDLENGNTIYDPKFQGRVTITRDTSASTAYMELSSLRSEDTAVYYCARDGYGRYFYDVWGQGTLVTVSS
T2 sequence (VL, as listed by the source limits assumed, chain 2 of 2): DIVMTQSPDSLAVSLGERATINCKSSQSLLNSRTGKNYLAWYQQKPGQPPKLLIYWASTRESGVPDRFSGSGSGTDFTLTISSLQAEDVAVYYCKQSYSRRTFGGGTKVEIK
Method in brief: as §1

ADI-26919 = target: T3, ADI-26919; test: SPR Carterra avidity, yeast anti-ID, *koff limit
T3 construct: anti-CD3 antibody made in CHO cells, captured by anti-human Fc
T3 sequence (VH, as listed by the source limits assumed, chain 1 of 2): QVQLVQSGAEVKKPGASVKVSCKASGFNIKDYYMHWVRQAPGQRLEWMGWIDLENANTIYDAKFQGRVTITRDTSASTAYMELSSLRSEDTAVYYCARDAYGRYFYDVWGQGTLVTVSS
T3 sequence (VL, as listed by the source limits assumed, chain 2 of 2): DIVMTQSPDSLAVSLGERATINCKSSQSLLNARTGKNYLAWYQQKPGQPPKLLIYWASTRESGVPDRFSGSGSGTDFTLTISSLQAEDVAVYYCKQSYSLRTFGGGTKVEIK
Method in brief: (§2)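 Goat anti-human Fc was amine-coupled to an HC30M sensor chip, then anti-CD3 antibodies at 100 nM were flowed over discrete spots for 5 min. Anti-idiotype antibodies were run in non-regenerative kinetic cycles at 25° C in HBSTE, with 300s dissociation. Blank-subtracted sensorgrams were fitted 1:1.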

ADI-26920 IgG = target: T4, ADI-26920 IgG; test: SPR Carterra avidity, yeast anti-ID, *koff limit
T4 construct: anti-CD3 IgG
T4 sequence (VH, as listed by the source limits assumed, chain 1 of 2): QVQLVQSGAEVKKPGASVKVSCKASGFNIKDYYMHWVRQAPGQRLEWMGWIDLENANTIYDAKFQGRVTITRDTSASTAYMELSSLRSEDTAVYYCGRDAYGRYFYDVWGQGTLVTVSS
Method in brief: as §2

ADI-26906 IgG = target: T5, ADI-26906 IgG; test: SPR Carterra avidity, yeast anti-ID, *koff limit
T5 construct: anti-CD3 IgG
T5 sequence (VL, as listed by the source limits assumed, chain 2 of 2): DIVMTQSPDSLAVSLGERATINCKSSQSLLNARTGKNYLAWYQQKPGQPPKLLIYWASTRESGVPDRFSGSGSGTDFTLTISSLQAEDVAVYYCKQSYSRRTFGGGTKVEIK
Method in brief: as §2

ADI-48576 = target: T6, ADI-48576; test: SPR Carterra, yeast anti-ID
T6 construct: pH-dependent anti-CD3 antibody made in CHO cells
Method in brief: as §2

CTL-62228 = target: T7, CTL-62228; test: SPR Carterra, yeast anti-ID
T7 construct: also called glofitamab
Method in brief: as §2

CTL-62240 = target: T8, CTL-62240; test: SPR Carterra, yeast anti-ID
T8 construct: also called ONO-4685
T8 sequence (VH, as listed by the source, chain 1 of 2): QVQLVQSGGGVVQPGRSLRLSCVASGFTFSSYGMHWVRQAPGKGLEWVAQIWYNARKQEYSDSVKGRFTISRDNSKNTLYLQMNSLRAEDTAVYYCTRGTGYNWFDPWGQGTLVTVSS
T8 sequence (VL, as listed by the source, chain 2 of 2): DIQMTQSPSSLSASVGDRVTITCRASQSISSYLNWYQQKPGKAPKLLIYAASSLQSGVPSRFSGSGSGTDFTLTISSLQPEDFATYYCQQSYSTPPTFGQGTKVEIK
Method in brief: as §2

ADI-48592 = target: T9, ADI-48592; test: SPR Carterra, yeast anti-ID
T9 construct: pH-dependent anti-CD3 antibody made in CHO cells
T9 sequence (VH, as listed by the source, chain 1 of 2): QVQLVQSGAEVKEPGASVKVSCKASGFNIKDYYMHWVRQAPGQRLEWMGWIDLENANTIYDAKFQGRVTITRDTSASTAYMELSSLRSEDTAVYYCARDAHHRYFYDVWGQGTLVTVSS
T9 sequence (VL, as listed by the source, chain 2 of 2): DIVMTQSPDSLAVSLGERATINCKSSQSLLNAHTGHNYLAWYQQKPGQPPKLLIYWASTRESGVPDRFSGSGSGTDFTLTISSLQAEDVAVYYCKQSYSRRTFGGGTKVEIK
Method in brief: as §2

CTL-62227 = target: T10, CTL-62227; test: SPR Carterra, yeast anti-ID
T10 construct: also called odronextamab
Method in brief: as §2

ADI-76359 = target: T11, ADI-76359; test: SPR Carterra avidity, yeast anti-ID
T11 construct: anti-CD3 antibody made in CHO cells, captured by anti-human Fc
T11 sequence (VH, as listed by the source, chain 1 of 2): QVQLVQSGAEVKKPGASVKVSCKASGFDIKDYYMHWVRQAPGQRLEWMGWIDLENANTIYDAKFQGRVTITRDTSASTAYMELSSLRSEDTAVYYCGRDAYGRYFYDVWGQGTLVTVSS
Method in brief: as §2

ADI-74965 = target: T12, ADI-74965; test: SPR Carterra avidity, yeast anti-ID
T12 construct: pH-dependent anti-CD3 antibody made in CHO cells
Method in brief: as §2

ADI-26916 IgG = target: T13, ADI-26916 IgG; test: SPR Carterra avidity, yeast anti-ID
T13 construct: anti-CD3 IgG
Method in brief: as §2

ADI-26924 = target: T14, ADI-26924; test: SPR Carterra avidity, yeast anti-ID
T14 construct: anti-CD3 antibody made in CHO cells, captured by anti-human Fc
Method in brief: as §2

ADI-67447 = target: T15, ADI-67447; test: SPR Carterra avidity, yeast anti-ID
T15 construct: anti-CD3 antibody made in CHO cells, captured by anti-human Fc
T15 sequence (VH, as listed by the source limits assumed, chain 1 of 2): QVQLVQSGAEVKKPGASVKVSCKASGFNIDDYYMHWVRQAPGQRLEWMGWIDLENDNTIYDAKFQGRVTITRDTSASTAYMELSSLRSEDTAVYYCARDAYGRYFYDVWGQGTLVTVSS
Method in brief: as §2

ADI-76361 = target: T16, ADI-76361; test: SPR Carterra avidity, yeast anti-ID
T16 construct: anti-CD3 antibody made in CHO cells, captured by anti-human Fc
T16 sequence (VH, as listed by the source, chain 1 of 2): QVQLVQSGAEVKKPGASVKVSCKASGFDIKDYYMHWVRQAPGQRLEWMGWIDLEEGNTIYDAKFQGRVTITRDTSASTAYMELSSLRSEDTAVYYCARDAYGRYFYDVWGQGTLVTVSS
Method in brief: as §2

ADI-48650 = target: T17, ADI-48650; test: SPR Carterra avidity, yeast anti-ID
T17 construct: pH-dependent anti-CD3 antibody made in CHO cells
T17 sequence (VH, as listed by the source, chain 1 of 2): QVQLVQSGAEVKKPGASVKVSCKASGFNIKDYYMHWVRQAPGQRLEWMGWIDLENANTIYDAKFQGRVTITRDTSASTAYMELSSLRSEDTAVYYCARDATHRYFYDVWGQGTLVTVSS
T17 sequence (VL, as listed by the source, chain 2 of 2): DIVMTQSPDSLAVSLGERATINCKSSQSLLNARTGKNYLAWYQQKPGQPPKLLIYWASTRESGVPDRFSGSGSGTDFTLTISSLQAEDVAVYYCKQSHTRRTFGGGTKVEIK
Method in brief: as §2

ADI-26915 = target: T18, ADI-26915; test: SPR Carterra avidity, yeast anti-ID
T18 construct: anti-CD3 antibody made in CHO cells, captured by anti-human Fc
Method in brief: as §2

ADI-26912 = target: T19, ADI-26912; test: SPR Carterra avidity, yeast anti-ID
T19 construct: anti-CD3 antibody made in CHO cells, captured by anti-human Fc
Method in brief: as §2

ADI-76357 = target: T20, ADI-76357; test: SPR Carterra avidity, yeast anti-ID
T20 construct: anti-CD3 antibody made in CHO cells, captured by anti-human Fc
T20 sequence (VH, as listed by the source, chain 1 of 2): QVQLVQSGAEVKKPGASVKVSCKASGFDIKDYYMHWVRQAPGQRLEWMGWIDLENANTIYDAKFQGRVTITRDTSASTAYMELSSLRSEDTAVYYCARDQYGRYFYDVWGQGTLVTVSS
Method in brief: as §2

ADI-26943 = target: T21, ADI-26943; test: SPR Carterra avidity, yeast anti-ID
T21 construct: anti-CD3 antibody made in CHO cells, captured by anti-human Fc
Method in brief: as §2

ADI-76358 = target: T22, ADI-76358; test: SPR Carterra avidity, yeast anti-ID
T22 construct: anti-CD3 antibody made in CHO cells, captured by anti-human Fc
Method in brief: as §2

ADI-70326 = target: T23, ADI-70326; test: SPR Carterra avidity, yeast anti-ID
T23 construct: anti-CD3 antibody made in CHO cells, captured by anti-human Fc
T23 sequence (VH, as listed by the source limits assumed, chain 1 of 2): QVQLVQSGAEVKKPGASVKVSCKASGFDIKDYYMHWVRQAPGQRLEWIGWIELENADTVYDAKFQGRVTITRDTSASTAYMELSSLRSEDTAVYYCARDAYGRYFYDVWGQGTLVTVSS
T23 sequence (VL, as listed by the source limits assumed, chain 2 of 2): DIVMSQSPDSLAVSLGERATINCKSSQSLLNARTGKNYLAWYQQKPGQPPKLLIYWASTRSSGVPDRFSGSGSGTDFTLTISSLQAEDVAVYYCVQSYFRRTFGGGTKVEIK
Method in brief: as §2

ADI-26909 = target: T24, ADI-26909; test: SPR Carterra avidity, yeast anti-ID
T24 construct: anti-CD3 antibody made in CHO cells, captured by anti-human Fc
T24 sequence (VH, as listed by the source limits assumed, chain 1 of 2): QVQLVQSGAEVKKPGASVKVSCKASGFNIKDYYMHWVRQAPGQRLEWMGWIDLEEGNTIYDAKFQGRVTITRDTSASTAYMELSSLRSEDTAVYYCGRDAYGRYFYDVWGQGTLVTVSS
Method in brief: as §2

ADI-74968 = target: T25, ADI-74968; test: SPR Carterra avidity, yeast anti-ID
T25 construct: pH-dependent anti-CD3 antibody made in CHO cells
Method in brief: as §2

ADI-50024 = target: T26, ADI-50024; test: SPR Carterra avidity, yeast anti-ID
T26 construct: anti-CD3 antibody made in CHO cells, captured by anti-human Fc
T26 sequence (VH, as listed by the source limits assumed, chain 1 of 2): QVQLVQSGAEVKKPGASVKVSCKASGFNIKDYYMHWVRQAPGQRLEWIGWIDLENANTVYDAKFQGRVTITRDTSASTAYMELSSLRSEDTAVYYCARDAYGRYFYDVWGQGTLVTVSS
Method in brief: as §2

ADI-74967 = target: T27, ADI-74967; test: SPR Carterra avidity, yeast anti-ID
T27 construct: pH-dependent anti-CD3 antibody made in CHO cells
Method in brief: as §2

ADI-26913 IgG = target: T28, ADI-26913 IgG; test: SPR Carterra avidity, yeast anti-ID
T28 construct: anti-CD3 IgG
Method in brief: as §2

ADI-67450 = target: T29, ADI-67450; test: SPR Carterra avidity, yeast anti-ID
T29 construct: anti-CD3 antibody made in CHO cells, captured by anti-human Fc
Method in brief: as §2

ADI-48587 = target: T30, ADI-48587; test: SPR Carterra avidity, yeast anti-ID
T30 construct: pH-dependent anti-CD3 antibody made in CHO cells
Method in brief: as §2

ADI-67445 = target: T31, ADI-67445; test: SPR Carterra avidity, yeast anti-ID
T31 construct: anti-CD3 antibody made in CHO cells, captured by anti-human Fc
T31 sequence (VH, as listed by the source limits assumed, chain 1 of 2): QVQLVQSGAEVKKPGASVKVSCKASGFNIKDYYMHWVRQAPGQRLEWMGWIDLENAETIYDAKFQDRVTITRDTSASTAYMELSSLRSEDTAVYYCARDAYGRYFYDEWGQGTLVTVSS
Method in brief: as §2

ADI-26921 IgG = target: T32, ADI-26921 IgG; test: SPR Carterra avidity, yeast anti-ID
T32 construct: anti-CD3 IgG
Method in brief: as §2

ADI-74966 = target: T33, ADI-74966; test: SPR Carterra avidity, yeast anti-ID
T33 construct: pH-dependent anti-CD3 antibody made in CHO cells
Method in brief: as §2

ADI-70327 = target: T34, ADI-70327; test: SPR Carterra avidity, yeast anti-ID
T34 construct: anti-CD3 antibody made in CHO cells, captured by anti-human Fc
T34 sequence (VH, as listed by the source limits assumed, chain 1 of 2): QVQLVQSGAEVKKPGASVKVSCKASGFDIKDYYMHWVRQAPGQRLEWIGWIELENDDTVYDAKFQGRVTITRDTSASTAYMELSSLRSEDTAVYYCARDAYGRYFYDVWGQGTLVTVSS
Method in brief: as §2

ADI-76360 = target: T35, ADI-76360; test: SPR Carterra avidity, yeast anti-ID
T35 construct: anti-CD3 antibody made in CHO cells, captured by anti-human Fc
Method in brief: as §2

ADI-76362 = target: T36, ADI-76362; test: SPR Carterra avidity, yeast anti-ID
T36 construct: anti-CD3 antibody made in CHO cells, captured by anti-human Fc
Method in brief: as §2

ADI-70330 = target: T37, ADI-70330; test: SPR Carterra avidity, yeast anti-ID
T37 construct: anti-CD3 antibody made in CHO cells, captured by anti-human Fc
T37 sequence (VH, as listed by the source limits assumed, chain 1 of 2): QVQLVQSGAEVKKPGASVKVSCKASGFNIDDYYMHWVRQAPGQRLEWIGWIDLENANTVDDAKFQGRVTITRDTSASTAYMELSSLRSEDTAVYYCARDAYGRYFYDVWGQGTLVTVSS
Method in brief: as §2

B1: ADI-34133 (antibody, V domains shown)
VH: QVQLVQSGAEVKKPGSSVKVSCKASGGTFSSYAISWVRQAPGQGLEWMGGIIPIFGTANYAQKFQGRVTITADESTSTAYMELSSLRSEDTAVYYCARGAPNYYGSGGYDDGWFDPWGQGTLVTVSS
VL: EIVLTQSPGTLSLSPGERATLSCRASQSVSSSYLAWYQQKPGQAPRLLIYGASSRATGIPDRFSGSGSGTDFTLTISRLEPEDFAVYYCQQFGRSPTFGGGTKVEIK
notes: anti-ID IgG
With B1 the Kd (ADI-22523 Fab) was 9.59 nM, the Kd (ADI-22523 IgG) was 0.59 nM and the Kd (ADI-26919) was 0.35 nM. For the same binder, the Kd (ADI-26920 IgG) was 0.24 nM, the Kd (ADI-26906 IgG) was 0.3 nM and the binding result (ADI-48576) was “no binding (tested: up to 200 nM)”. B1: no binding (tested: up to 200 nM) (CTL-62228); no binding (tested: up to 200 nM) (CTL-62240); no binding (tested: up to 200 nM) (ADI-48592). The binding result (CTL-62227) was “no binding (tested: up to 200 nM)”, the Kd (ADI-76359) was 0.24 nM and the Kd (ADI-74965) was 18 nM. For the same binder, the binding result (ADI-26916 IgG) was “binds”, the Kd (ADI-26924) was 1.1 nM and the Kd (ADI-67447) was 1.3 nM. The Kd (ADI-76361) was 0.91 nM, the Kd (ADI-48650) was 40 nM and the binding result (ADI-26915) was “binds”. For the same binder, the Kd (ADI-26912) was 52 nM, the Kd (ADI-76357) was 0.96 nM and the Kd (ADI-26943) was 0.65 nM. For the same binder, the binding result (ADI-76358) was “binds”, the binding result (ADI-70326) was “binds” and the Kd (ADI-26909) was 1.3 nM. The Kd (ADI-74968) was 8.2 nM, the Kd (ADI-50024) was 1.1 nM and the Kd (ADI-74967) was 1.9 nM. For the same binder, the Kd (ADI-26913 IgG) was 1.9 nM, the Kd (ADI-67450) was 2 nM and the Kd (ADI-48587) was 20 nM. The Kd (ADI-67445) was 1.1 nM, the Kd (ADI-26921 IgG) was 0.96 nM and the binding result (ADI-74966) was “binds”. The binding result (ADI-70327) was “binds”, the Kd (ADI-76360) was 1.7 nM and the Kd (ADI-76362) was 2 nM. The Kd (ADI-70330) was 1.9 nM.
